Laboratory results taken from patent publication US20140023715A1 (EMORY UNIVERSITY, published 2014).

Target: T1, uPAR (species and form not stated)
T1 construct: also called uPA receptor
T1 sequence (Q03405 23-305): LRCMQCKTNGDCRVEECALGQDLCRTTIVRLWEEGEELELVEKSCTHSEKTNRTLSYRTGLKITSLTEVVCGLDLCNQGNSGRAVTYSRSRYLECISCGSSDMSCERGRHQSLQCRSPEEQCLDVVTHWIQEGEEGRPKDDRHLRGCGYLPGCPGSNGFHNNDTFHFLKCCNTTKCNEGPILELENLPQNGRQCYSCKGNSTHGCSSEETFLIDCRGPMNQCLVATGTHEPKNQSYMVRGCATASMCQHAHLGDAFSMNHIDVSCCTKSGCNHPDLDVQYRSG

B1: recombinant mouse amino terminal fragment (ATF, 135 aa) of uPA (ligand, UniProt P06869 21-155, looked up)
chain: GSVLGAPDESNCGCQNGGVCVSYKYFSRIRRCSCPRKFQGEHCEIDASKTCYHGNGDSYRGKANTDTKGRPCLAWNAPAVLQKPYNAHRPDAISLGLGKHNYCRNPDNQKRPWCYVQIGLRQFVQECMVHDCSLS
notes: range 1-135; 17 kDa, made in E. coli BL21; also called mouse ATF peptide; murine ATF; not shown: tag from vector pET101/D-TOPO (purified on Ni-NTA)
Work on B1 yielded a Kd of less than 1 nM.
